Assay results taken from patent US20210347842A1 (Eli Lilly, published 2021).

Columns and labels:
human PD-1 [1] = biological target: T1, human PD-1 (human, UniProt Q15116 21-170); experiment: bio-layer interferometry (BLI)
human PD-1 [2] = biological target: T1, human PD-1; experiment: not stated in the sentence (BLI named in the next sentence), 25 C; 25 C; stated bound in the text
cynomolgus monkey PD-1 = biological target: T2, cynomolgus monkey PD-1 (cynomolgus monkey, UniProt B0LAJ3 25-170); experiment: not stated in the sentence (BLI named in the next sentence), 25 C
T2 construct: construct not described; also called cynomologous monkey PD-1
T2 sequence (B0LAJ3 entry or part of it limits assumed): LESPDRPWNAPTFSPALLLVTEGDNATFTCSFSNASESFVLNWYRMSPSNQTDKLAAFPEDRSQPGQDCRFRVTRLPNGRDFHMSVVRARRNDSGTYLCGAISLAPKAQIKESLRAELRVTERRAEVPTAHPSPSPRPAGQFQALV

T1 sequence (Q15116 21-170 limits assumed, form in doubt): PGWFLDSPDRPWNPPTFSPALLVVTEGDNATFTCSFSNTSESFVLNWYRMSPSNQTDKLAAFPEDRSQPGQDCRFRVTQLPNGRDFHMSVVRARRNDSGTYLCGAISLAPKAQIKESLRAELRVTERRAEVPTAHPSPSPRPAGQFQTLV

Kd (human PD-1 [1]): < 0.001 nM | Kd (human PD-1 [2]): ≤ 0.01 nM | Kd (cynomolgus monkey PD-1): ≤ 0.01 nM
B1: AM0001 (antibody, human IgG4 S228P, lambda, V domains shown)
VH: EVQLLESGGGLVQPGGSLRLSCPASGFTFSSYAMSWVRQAPGKGLGWVSDISGGGGTTYYADSVKGRFTISRDNSKNTLYLQMNSLRGEDTAVYYCAKSGTVVTDFDYWGQGTLVTVSS
VL: SYVLTQPPSVSVAPGQTARVTCGGNSIGSYSVHWYQQKPGQAPVLVVYDDSDRPSGIPERFSGSNSGNTAALTISRVEAGDEADYYCQVWDTSSYWVFGGGTKLTVLG
notes: Monoclonal antibody with lambda 2 light chain and hinge-stabilized IgG4 (S228P) heavy chain; also called PD1-antagonist antibody
